The source of these data is US20220363763A1 (ABL BIO, published 2022).

The target of test [1] is T1, recombinant human LAG-3-ECD-human IgG1 fusion protein (human, UniProt P18627 23-450, biotin-labeled in the MHC class II blocking assays).
T1 construct: extracellular domain; also called LAG-3-huFc; LAG-3-ECD-huFc; not shown: human IgG1 Fc
T1 sequence (looked up): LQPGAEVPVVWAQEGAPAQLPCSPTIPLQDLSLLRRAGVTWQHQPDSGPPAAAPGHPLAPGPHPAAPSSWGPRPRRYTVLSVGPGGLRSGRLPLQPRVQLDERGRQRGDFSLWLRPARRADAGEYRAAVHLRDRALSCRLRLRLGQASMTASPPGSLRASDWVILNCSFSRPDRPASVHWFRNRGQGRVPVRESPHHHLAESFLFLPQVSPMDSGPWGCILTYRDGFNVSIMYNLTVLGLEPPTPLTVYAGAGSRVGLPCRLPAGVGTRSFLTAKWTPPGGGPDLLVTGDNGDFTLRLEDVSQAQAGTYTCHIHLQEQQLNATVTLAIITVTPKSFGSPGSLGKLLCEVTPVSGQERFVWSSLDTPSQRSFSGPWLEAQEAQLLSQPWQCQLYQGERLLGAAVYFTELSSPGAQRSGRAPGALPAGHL
The experiment in a line: ELISA on coated D1-D4 huFc; EC50 table has no unit, x axis Ab(nM). The method, then: Briefly, D1-D4 huFc or ΔD1-D2 huFc was coated at 0.5 μg/ml overnight and then blocked by 5% BSA in PBS. The serially diluted antibodies (starting from 1 μg/ml and 1:3 serial dilution for 10 doses) were incubated with the coated antigen for 1 hr at room temperature. The resulting plates were washed with PBS/T and incubated with goat anti-mouse IgG-HRP for 1 h at room temperature. The plates were developed with TMB substrate and analyzed by spectrophotometer at OD 450-630 nm.
In general terms: An ELISA detects its analyte on a solid surface through an enzyme-linked reagent.

For test [2], the target named is T1, recombinant human LAG-3-ECD-human IgG1 …. The experiment in a line: flow cytometry; blocking of biotin-LAG-3-ECD-huFc binding to MHC class II on Raji cells. As to the method:
To evaluate the ability of anti-LAG-3 antibodies to block the binding of sLAG-3 to MHC class II receptor, an in vitro binding assay was designed using biotin-labeled LAG-3-ECD-huFc fusion proteins and Raji cells expressing MHC class II receptor. […] The antibody mixture was then added to FcR blocked Raji cells and incubated for 30 min on ice. Cells were then washed with FACS buffer and subsequently stained with streptavidin PE for 30 min on ice and subsequently washed once with FACS buffer. Labeled cells were evaluated for fluorescence intensity by flow cytometry in a BD FACSCalibur™.

Test [3] deals with T2, recombinant his-tag human LAG3-ECD protein (human, UniProt P18627 23-450).
T2 construct: extracellular domain; not shown: his tag
T2 sequence (looked up): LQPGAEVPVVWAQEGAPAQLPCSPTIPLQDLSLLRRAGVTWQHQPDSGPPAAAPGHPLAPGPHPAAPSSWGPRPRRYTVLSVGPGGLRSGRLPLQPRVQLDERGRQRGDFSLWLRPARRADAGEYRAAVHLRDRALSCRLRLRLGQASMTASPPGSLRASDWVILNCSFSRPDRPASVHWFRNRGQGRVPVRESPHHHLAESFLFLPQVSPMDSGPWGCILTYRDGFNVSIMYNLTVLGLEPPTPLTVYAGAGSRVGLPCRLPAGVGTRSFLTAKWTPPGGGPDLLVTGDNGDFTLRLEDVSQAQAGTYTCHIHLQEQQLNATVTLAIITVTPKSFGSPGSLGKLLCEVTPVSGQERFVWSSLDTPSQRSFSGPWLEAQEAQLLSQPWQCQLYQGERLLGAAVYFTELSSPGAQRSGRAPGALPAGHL
The experiment in a line: SPR Biacore T200, antibody captured by anti-human Fc, LAG3-ECD-his injected. A digest of the protocol:
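Antibodies captured on chip-coated anti-human Fc; his-tag human LAG3-ECD injected at serial concentrations of 0-4 nM, flow 30 μl/min. Dissociation phase 900 s or 550 s.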

Test [4] has as its target T3, rat LAG3 ECD-Fc protein (rat, UniProt Q5BK54 24-442).
T3 construct: extracellular domain; not shown: Fc part
T3 sequence (looked up): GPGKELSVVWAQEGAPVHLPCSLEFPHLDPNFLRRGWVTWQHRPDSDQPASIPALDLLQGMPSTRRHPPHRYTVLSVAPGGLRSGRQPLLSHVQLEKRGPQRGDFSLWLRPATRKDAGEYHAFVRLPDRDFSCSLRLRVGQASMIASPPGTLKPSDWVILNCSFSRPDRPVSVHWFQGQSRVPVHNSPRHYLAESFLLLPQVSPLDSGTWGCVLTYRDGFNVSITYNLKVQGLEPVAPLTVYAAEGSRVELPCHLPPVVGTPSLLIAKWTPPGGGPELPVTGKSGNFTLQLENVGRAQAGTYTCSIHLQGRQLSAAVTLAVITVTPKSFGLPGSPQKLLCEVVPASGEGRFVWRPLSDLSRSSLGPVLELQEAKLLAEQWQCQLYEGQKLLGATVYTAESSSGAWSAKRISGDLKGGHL
The experiment in a line: ELISA on coated rat LAG3 ECD-Fc; EC50 table has no unit, x axis Ab(nM). As to the method:
(§1) To evaluate the capability of the anti-LAG-3 antibodies to bind to human, rat, and mouse LAG3 the antibodies identified in Example 2.1 were evaluated for their binding property through ELISA. The human, rat and mouse LAG3 ECD-Fc protein were coated to ELISA plate at 1 μg/ml with 100 μl/well. Antibodies from Example 1 were serially diluted with ELISA diluent buffer. […] The resulting plates were washed and then labeled with anti-human IgG(Fab)-HRP antibody. The S31 can only bind to human LAG3. The S27 and T99 can bind to human LAG3 and rat/mouse LAG3 with lower potency. The S119 antibody can bind to human, rat and mouse LAG3 at high potency (FIGS. 22A-22D).

The target of test [5] is T1, recombinant human LAG-3-ECD-human IgG1 …. The experiment in a line: ELISA on coated human LAG3 ECD-Fc; EC50 table has no unit, x axis Ab(nM). The method, then: as §1
Test [6] addresses T4, mouse LAG3 ECD-Fc protein (mouse, UniProt Q61790 24-442).
T4 construct: extracellular domain; not shown: Fc part
T4 sequence (looked up): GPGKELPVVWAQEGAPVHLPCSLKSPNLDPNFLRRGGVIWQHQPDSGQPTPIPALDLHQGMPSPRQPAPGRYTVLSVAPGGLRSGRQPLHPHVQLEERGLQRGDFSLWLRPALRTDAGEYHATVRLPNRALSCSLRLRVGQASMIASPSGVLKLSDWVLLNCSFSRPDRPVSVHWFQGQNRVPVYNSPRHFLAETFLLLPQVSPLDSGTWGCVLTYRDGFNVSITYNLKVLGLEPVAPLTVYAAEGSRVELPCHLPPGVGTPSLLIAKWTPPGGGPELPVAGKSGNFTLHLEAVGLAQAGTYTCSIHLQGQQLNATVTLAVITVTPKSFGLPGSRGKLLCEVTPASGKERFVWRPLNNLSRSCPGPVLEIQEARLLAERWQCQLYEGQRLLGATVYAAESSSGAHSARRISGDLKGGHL
The experiment in a line: ELISA on coated mouse LAG3 ECD-Fc; EC50 table has no unit, x axis Ab(nM). As to the method:
as §1

Test [7] concerns the target T1, recombinant human LAG-3-ECD-human IgG1 …. The experiment in a line: flow cytometry; blocking of biotin-LAG-3-ECD-huFc binding to MHC class II on Raji cells. The method, then:
(§2) To evaluate the ability of anti-LAG-3 antibodies to block the binding of sLAG-3 to MHC class II receptor, an in vitro binding assay was designed using biotin-labeled LAG-3-ECD-huFc fusion proteins and Raji cells expressing MHC class II receptor. Antibodies from Example 1 were serially diluted from 20 μg/mL with FACS buffer and pre-incubated with 6 μg/mL of biotin-LAG-3-ECD-huFcc for 30 min at room temperature. The antibody mixture was then added to FcR blocked Raji cells and incubated for 30 min on ice. Cells were then washed with FACS buffer and subsequently stained with streptavidin PE for 30 min on ice and subsequently washed once with FACS buffer. Labeled cells were evaluated for fluorescence intensity by flow cytometry in a BD FACSCalibur™.
This is another data set of the same source. (In general: Flow cytometry measures light scatter and fluorescence of single cells or particles in a stream.)

Test [8] concerns the target T3, rat LAG3 ECD-Fc protein. The experiment in a line: ELISA on coated rat LAG3 ECD-Fc; EC50 table has no unit, x axis Ab(nM); fit value of a flat curve. As to the method:
as §1

Test [9] concerns the target T4, mouse LAG3 ECD-Fc protein. The experiment in a line: ELISA on coated mouse LAG3 ECD-Fc; EC50 table has no unit, x axis Ab(nM); fit value of a flat curve. The method, then:
as §1

The target in test [10] is T1, recombinant human LAG-3-ECD-human IgG1 …. The experiment in a line: flow cytometry; blocking of biotin-LAG-3-ECD-huFc binding to MHC class II on Raji cells; the curve ends at about 20 nM without a lower plateau. As to the method:
as §2

B1: 147H mouse monoclonal antibody (antibody, V domains shown)
VH: QVQLQQSGSELVRPGTSVKISCKASGYTFTNYWLGWIKQRPGHGLEWIGDIYPGGDYINYNEKFKGKATLSADTSSSTAYMQLSSLTSEDSAVYFCARPNLPGDYWGQGTSVTVSS
VL: DIVMTQAAFSNPVTLGTSASISCRSSKSLLHSNGITYLYWYLQKPGQSPQLLIYQVSNLASGVPGRFSGSGSGTDFTLRISRVEAEDVGVYYCAQNLELPWTFGGGTKLEIK
notes: Mouse hybridoma antibody
By EC50 is commonly meant the concentration needed to bring the measured effect to its halfway point. What is called IC50 is the concentration that inhibits the measured activity by half. Regarding B1, the EC50 in [1] is 0.0979 nM. Besides, the IC50 in [2] worked out at 21.4 nM.

B2: NLAG3-HDB169-S119 (antibody, human IgG1, V domains shown)
VH: QVQLVQSGAEVKKPGSSVKVSCKASGGTFSSYAISWVRQAPGQGLEWMGGIIPIFGTANYAQKFQGRVTITADESTSTAYMELSSLRSEDTAVYYCAASTLRVPNPPYWGQGTLVTVSS
VL: EIVLTQSPGTLSLSPGERATLSCRASQSVSSYLAWYQQKPGQAPRLLIYGISSRATGIPDRFSGSGSGTDFTLTISSLQPEDFATYYCQQANNFPLTFGGGTKLEIKR
notes: Short label tied by its unique suffix
For orientation: Kd means the equilibrium constant for the complex coming apart. What is called koff is the rate constant with which the complex falls apart. What is called kon is the rate constant with which the complex forms. Take B2: in test [3], the Kd worked out at 0.00687 nM, the koff was 0.000149 s⁻¹ and the kon is 2.17e+07 M⁻¹ s⁻¹. In the test with rat LAG3 ECD-Fc protein [4], this molecule showed an EC50 of 0.0387 nM. Besides, in [5], the half-maximal effective concentration (EC50) turned out to be 0.0321 nM. Moreover, the half-maximal effective concentration (EC50) in test [6] came to 0.0724 nM. In test [7], the IC50 worked out at 9.29 nM.

B3: NLAG3-HDB169-S31 (antibody, human IgG1, V domains shown)
VH: QVQLVQSGAEVKKPGSSVKVSCKASGGTFSSYAISWVRQAPGQGLEWMGGIIPIFGTANYAQKFQGRVTITADESTSTAYMELSSLRSEDTAVYYCARDAGPVGYYGMDVWGQGTTVTVSS
VL: AIRMTQSPSTLSASVGDRVTITCRASQGIAGWLAWYQQKPGKAPKLLIYAASSLQSGVPSRFSGSASGTDFTLTISNLQPEDFATYYCQQAKSFPLTFGGGTKVEIKR
notes: as for B2
For the molecule B3, in test [3], the Kd turned out to be 0.03 nM, the koff amounted to 6.25e-05 s⁻¹ and the on-rate constant (kon) was 2.08e+06 M⁻¹ s⁻¹. For the same molecule, the EC50 in test [5] is 0.279 nM. Besides, in the test with rat LAG3 ECD-Fc protein [8], the EC50 is approximately 271000 nM. The EC50 in test [9] amounted to 119 nM. Besides, the IC50 in [10] stood at 82.6 nM.
